Like-named read-outs stand apart in the source and are kept apart here.
T1: hFc-hFasL (fusion protein of human Fc fragment and human FasL extracellular region) (human, UniProt P48023 134-281)
T1 sequence: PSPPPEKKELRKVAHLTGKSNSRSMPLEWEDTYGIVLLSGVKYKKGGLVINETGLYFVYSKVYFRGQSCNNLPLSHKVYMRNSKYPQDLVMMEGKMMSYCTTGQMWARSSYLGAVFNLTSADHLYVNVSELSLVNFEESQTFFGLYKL


Key:
[1] = molecular target: hFc-hFasL (fusion protein of human Fc fragment and human FasL extracellular region) (human) (UniProt P48023); assay: ELISA, hFc-hFasL coated, sample titrated (detection for this reference not separately stated)
[2] = molecular target: hFc-hFasL (fusion protein of human Fc fragment and human FasL extracellular region) (human) (UniProt P48023); assay: cell-based or functional assay
[3] = molecular target: T1, hFc-hFasL (fusion protein of human Fc …); assay: cell-based or functional assay
[4] = molecular target: T1, hFc-hFasL (fusion protein of human Fc …); assay: cell-based or functional assay; remark: listed apart in the source
[5] = molecular target: T1, hFc-hFasL (fusion protein of human Fc …); assay: ELISA, hFc-hFasL coated, antibody titrated, anti-human kappa-HRP
[6] = molecular target: T1, hFc-hFasL (fusion protein of human Fc …); assay: cell-based or functional assay; remark: listed apart in the source
[7] = molecular target: T1, hFc-hFasL (fusion protein of human Fc …); assay: ELISA, hFc-hFasL coated, antibody titrated, anti-human kappa-HRP (protocol of Example 3.2)
[8] = molecular target: T1, hFc-hFasL (fusion protein of human Fc …); assay: cell-based or functional assay; remark: listed apart in the source
[9] = molecular target: T1, hFc-hFasL (fusion protein of human Fc …); assay: cell-based or functional assay; remark: listed apart in the source
[10] = molecular target: T1, hFc-hFasL (fusion protein of human Fc …); assay: cell-based or functional assay; remark: listed apart in the source
[11] = molecular target: T1, hFc-hFasL (fusion protein of human Fc …); assay: ELISA, hFc-hFasL coated, sample titrated (detection for this reference not separately stated)

Molecule	IC50(nM), FasL antigen-induced apoptosis of HepG2 cells (CellTiter-Glo ATP) [3] [nM]	IC50(nM), FasL antigen-induced apoptosis of Jurkat cells (CellTiter-Glo ATP) [4] [nM]	EC50(nM), FasL antigen-induced NF-κB signaling pathway activation (SEAP, HepG2-Dual) [6] [nM]	EC50 [7] [nM]	HepG2 IC50(nM), FasL antigen-induced cell apoptosis [8] [nM]	Jurkat IC50(nM), FasL antigen-induced cell apoptosis [8] [nM]	EC50(nM), FasL antigen-induced NF-κB signaling pathway activation [9] [nM]	also measured
MAB126-100 (commercial anti-FasL antibody, RD)								EC50 [1]: 0.948 nM; HepG2 IC50(nM), FasL antigen-induced cell apoptosis [2]: 0.074 nM; IC50(nM), FasL antigen-induced apoptosis of HepG2 cells (CellTiter-Glo ATP) [2]: 0.099 nM; Jurkat IC50(nM), FasL antigen-induced cell apoptosis [2]: 0.046 nM
humFL-M88-1 (antibody, human IgG4, V domains shown, Humanized FL-M88) VH: QVQLVQSGAEVKKPGASVKVSCKGSGYTFTDYTIHWVRQAPGQGLEWIGVISTYQGDASYNQKFKGRATMTVDKSTSTAYMELSSLRSEDTAVYYCARFPDWDYAMDYWGQGTLVTVSS VL: EIVMTQSPATLSVSPGERATLSCKASQSVDYDGDSYMNWYQQKPGQPPRLLIYAASNLESGIPARFSGSGSGTEFTLTISSLQSEDFAVYYCQHSRELPYTFGQGTKLEIK				0.265	0.0125	0.0193	0.454	
humFL-M88-13 (antibody, human IgG4, V domains shown, Humanized FL-M88) VH: QVQLVQSGAEVKKPGASVKVSCKGSGYTFTDYTIHWVRQAPGQGLEWIGVISTYQGDASYNQKFKGRATMTVDKSTSTAYMELSSLRSEDTAVYYCARFPDWDYAMDYWGQGTLVTVSS VL: EIVMTQSPATLSVSPGERATLSCKASQSVDYDGDSYMNWYQQKPGQPPRLLIYAASNLESGIPARFSGSGSGTEFTLTISSLQSEDFAVYYCQQSRELPYTFGQGTKLEIK				0.302	0.0126	0.0243	0.698	
FL-M54 (antibody, V domains shown, Chimeric full-length antibody, tested as human IgG4 / human kappa) VH: EVQLQQSGVELVKPGASVKLSCKASGYTFTRFDISWVRQRPEQGLEWIGWIFPGDGSSQYNENFKGKATLTTDKSSGTAYMQLNRLTSEDSAVYFCARSLISTAMFDHWGQGTTLTVSS VL: DIVMTQSPASLAVSLGQRATISCRASKSVSTSDFSYIHWYQQKPGQPPKLLIFLASHLESGVPARFSGSGSGTDFTLNIHPVEEEDAATYYCQHSRELPRTFGGGTKLEIK	0.018	0.018	1.97					HepG2 IC50(nM), FasL antigen-induced cell apoptosis [10]: 0.023 nM; Jurkat IC50(nM), FasL antigen-induced cell apoptosis [10]: 0.023 nM; EC50 [5]: 0.725 nM
APG101 (Fas fusion protein, Apogenix) (Fc fusion, UniProt P25445 26-172, looked up, also called Fas-Fc fusion protein APG101; FasL antagonist APG101; not shown: Fc part of APG101) QVTDINSKGLELRKTVTTVETQNLEGLHHDGQFCHKPCPPGERKARDCTVNGDEPDCVPCQEGKEYTDKAHFSSKCRRCRLCDEGHGLEVEINCTRTQNTKCRCKPNFFCNSTVCEHCDPCTKCEHGIIKECTLTSNTKCKEEGSRS	11.3	> 100	7.23					EC50 [11]: 23.5 nM

The next lines start with results.

IC50(nM), FasL antigen-induced apoptosis of HepG2 cells (CellTiter-Glo ATP) [3] [nM]	IC50(nM), FasL antigen-induced apoptosis of Jurkat cells (CellTiter-Glo ATP) [4] [nM]	EC50(nM), FasL antigen-induced NF-κB signaling pathway activation (SEAP, HepG2-Dual) [6] [nM]	EC50 [7] [nM]	HepG2 IC50(nM), FasL antigen-induced cell apoptosis [8] [nM]	Jurkat IC50(nM), FasL antigen-induced cell apoptosis [8] [nM]	EC50(nM), FasL antigen-induced NF-κB signaling pathway activation [9] [nM]	Molecule	also measured
0.016	0.023	3.01					FL-M78 (antibody, V domains shown, Chimeric full-length antibody, tested as human IgG4 / human kappa) VH: DVQLQESGGGLVQPGGSRKLSCAASGFTFSSYDMSWVRQTPEKRLEWVAFISSGGGSTYYPDTVKGRFTISRDNAKNTLYLQMSSLKSEDSAMYYCGRHYDNYLYAMDYWGQGTSVTVSS VL: DIVMTQSPASQSASLGESVTITCLASQTIGTWLAWYQQKPGKSPQLLIYAATSLADGVPSRFSGSGSGTKFSFKISSLQAEDFVSYYCQQLYSTPFTFGGGTKLEIK	EC50 [5]: 0.811 nM
			0.273	0.0276	0.0192	0.444	humFL-M88-3 (antibody, human IgG4, V domains shown, Humanized FL-M88) VH: QVQLVQSGAEVKKPGASVKVSCKGSGYTFTDYTIHWVRQAPGQGLEWMGVISTYQGDASYNQKFKGRATMTVDKSTSTAYMELSSLRSEDTAVYYCARFPDWDYAMDYWGQGTLVTVSS VL: EIVMTQSPATLSVSPGERATLSCKASQSVDYDGDSYMNWYQQKPGQPPRLLIYAASNLESGIPARFSGSGSGTEFTLTISSLQSEDFAVYYCQHSRELPYTFGQGTKLEIK	
			0.301	0.0143	0.0149	0.47	humFL-M88-15 (antibody, human IgG4, V domains shown, Humanized FL-M88) VH: QVQLVQSGAEVKKPGASVKVSCKGSGYTFTDYTIHWVRQAPGQGLEWMGVISTYQGDASYNQKFKGRATMTVDKSTSTAYMELSSLRSEDTAVYYCARFPDWDYAMDYWGQGTLVTVSS VL: EIVMTQSPATLSVSPGERATLSCKASQSVDYDGDSYMNWYQQKPGQPPRLLIYAASNLESGIPARFSGSGSGTEFTLTISSLQSEDFAVYYCQQSRELPYTFGQGTKLEIK	
